Laboratory results from patent US20200181261A1 (Bayer, published 2020).
Positions count from the first letter of the chain named.

B1: TPP-3714 (antibody, human IgG2, kappa)
heavy: QVTLRESGPALVKPTQTLTLTCTFSGFSLSTYGIGVGWIRQPPGKALEWLAHIWWNDNKYYSTSLKTRLTISKDTSKNQVVLTMTNMDPVDTATYYCARISLPYFDYWGQGTLVTVSSASTKGPSVFPLAPCSRSTSESTAALGCLVKDYFPEPVTVSWNSGALTSGVHTFPAVLQSSGLYSLSSVVTVPSSNFGTQTYTCNVDHKPSNTKVDKTVERKCCVECPPCPAPPVAGPSVFLFPPKPKDTLMISRTPEVTCVVVDVSHEDPEVQFNWYVDGVEVHNAKTKPREEQFNSTFRVVSVLTVVHQDWLNGKEYKCKVSNKGLPAPIEKTISKTKGQPREPQVYTLPPSREEMTKNQVSLTCLVKGFYPSDIAVEWESNGQPENNYKTTPPMLDSDGSFFLYSKLTVDKSRWQQGNVFSCSVMHEALHNHYTQKSLSLSPG
light: DIQLTQSPSFLSASVGDRVTITCKASQNVGTAVAWYQQKPGKAPKLLIYSASNRYTGVPSRFSGSGSGTEFTLTISSLQPEDFATYYCQQYSSYPLTFGGGTKVEIKRTVAAPSVFIFPPSDEQLKSGTASVVCLLNNFYPREAKVQWKVDNALQSGNSQESVTEQDSKDSTYSLSSTLTLSKADYEKHKVYACEVTHQGLSSPVTKSFNRGEC
notes: humanized from TPP-2971, human IgG2; also called TPP-2971HU2-hIgG2Kappa
B2: TPP-3323 (antibody, human IgG2, kappa, V domains shown)
VH: QVTLKESGPGILQPSQTLSLTCSFSGFSLTTYGIGVGWIRQPSGKGLEWLAHIWWNDNKYYNTALKSRLTISKDTSNNQVFLKIASVDTADTATYYCARISLPYFDYWGQGTTLTVSS
VL: DIVMTQSQKFMSTSVGDRVSITCKASQNVGTAVAWYQQKPGQSPKLLIYSASNRYTGVPDRFTGSGSGTDFTLTISNMQSEDLADYFCQQYNNYPLTFGAGTKLELKR
notes: human IgG2 chimera; also called TPP-3187X1-hIgG2; hIgG2 chimera of TPP-3187
B3: TPP-3308 (antibody, human IgG2, kappa, V domains shown)
VH: B2 VH with T30S, G46D
VL: B2 VL with N92S, N93S
notes: human IgG2 chimera; also called TPP-2971X1-hIgG2Kappa; hIgG2 chimera of TPP-2971

Tests used:
Assay in all cases: FACS, transfected HeLa cells
[1] = target: T1, human CEACAM8, full-length, on transfected HeLa cells (human, UniProt P31997 35-320)
T1 construct: also called TPP-4190; HeLa human CEACAM8
T1 sequence: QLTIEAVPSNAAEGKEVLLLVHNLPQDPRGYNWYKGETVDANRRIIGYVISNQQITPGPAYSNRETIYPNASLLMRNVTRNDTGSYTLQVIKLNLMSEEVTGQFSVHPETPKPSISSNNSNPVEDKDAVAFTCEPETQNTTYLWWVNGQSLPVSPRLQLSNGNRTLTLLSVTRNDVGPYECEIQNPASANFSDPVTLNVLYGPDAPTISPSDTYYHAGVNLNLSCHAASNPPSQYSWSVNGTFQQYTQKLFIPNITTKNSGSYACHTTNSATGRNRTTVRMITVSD
Description: (§1) For FACS experiments HeLa wild type cells were cultured in RPMI-1640, 10% FCS, while CEACAM-receptor transfected HeLa cells received in addition 0.5% Gentamycin (stock 10 mg/ml, Fa. PAA) and 200 μg/ml Hygromycin B (stock 50 mg/ml, Invitrogen). Cells were washed 3 times with PBS w/o Ca²⁺/Mg²⁺ and were detached from the culture plate non-enzymatically with EDTA dissociation buffer (Gibco). Cells were washed in cold FACS buffer (PBS w/o Ca²⁺/Mg²⁺ and heat-inactivated 3% FCS) and were counted using a countess machine (Invitrogen). 10⁵ cells per well were plated and incubated with the respective primary antibody (5 μg/ml) for 1 h at 4° C. on a plate shaker. […] After 2 times washing the cells were resuspended in 100 μl FACS buffer and were analysed on a FACS Canto II machine (Beckton Dickinson) or a FACS Array (Beckton Dickinson).
(§2) For EC₅₀ analysis, the primary antibodies were used at increasing concentrations in a range from 0.1 nM to 100 nM. Half maximal binding values (EC₅₀) were determined by plotting the median fluorescence intensity signal against the concentration (logarithmic scale). Curve fitting of data was performed using the Graph Pad prism analysis software.

[2] = target: T2, human CEACAM6, full-length, on cells (human, UniProt P40199 35-320)
T2 construct: used both for transfected HeLa cells and for tumor cell lines that express CEACAM6 endogenously; also called TPP-4639; HeLa human CEACAM6
T2 sequence: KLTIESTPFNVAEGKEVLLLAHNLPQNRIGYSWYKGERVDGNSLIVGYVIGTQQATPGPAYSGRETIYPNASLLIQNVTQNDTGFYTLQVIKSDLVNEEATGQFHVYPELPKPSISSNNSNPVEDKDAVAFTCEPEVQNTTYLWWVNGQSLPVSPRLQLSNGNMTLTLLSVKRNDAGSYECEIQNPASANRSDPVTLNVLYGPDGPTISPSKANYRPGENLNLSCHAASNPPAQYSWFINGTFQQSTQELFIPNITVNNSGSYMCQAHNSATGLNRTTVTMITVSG
Description: as §1, §2

[3] = target: T3, human CEACAM1, full-length, on transfected HeLa cells (human, UniProt P13688 35-526)
T3 construct: also called TPP-4185; HeLa human CEACAM1
T3 sequence: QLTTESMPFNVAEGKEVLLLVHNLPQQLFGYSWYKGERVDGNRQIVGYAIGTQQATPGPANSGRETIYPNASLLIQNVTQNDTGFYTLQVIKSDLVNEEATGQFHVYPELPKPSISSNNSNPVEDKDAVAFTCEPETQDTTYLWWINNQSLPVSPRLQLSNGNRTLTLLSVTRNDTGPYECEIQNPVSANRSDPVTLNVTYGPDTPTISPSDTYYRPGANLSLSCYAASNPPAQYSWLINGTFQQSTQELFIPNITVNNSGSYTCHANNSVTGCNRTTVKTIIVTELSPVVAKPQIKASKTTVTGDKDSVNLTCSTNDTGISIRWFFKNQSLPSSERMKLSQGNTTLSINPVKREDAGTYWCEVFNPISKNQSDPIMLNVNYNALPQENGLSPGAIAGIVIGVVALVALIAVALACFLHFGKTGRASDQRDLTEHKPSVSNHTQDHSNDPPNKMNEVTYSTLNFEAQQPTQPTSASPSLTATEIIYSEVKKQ
Description: as §1, §2

[4] = target: T4, human CEACAM5, full-length, on transfected HeLa cells (human, UniProt P06731 35-685, GPI anchor at the C-terminus on the cell surface, not carried by the letters)
T4 construct: also called TPP-4188; HeLa human CEACAM5
T4 sequence: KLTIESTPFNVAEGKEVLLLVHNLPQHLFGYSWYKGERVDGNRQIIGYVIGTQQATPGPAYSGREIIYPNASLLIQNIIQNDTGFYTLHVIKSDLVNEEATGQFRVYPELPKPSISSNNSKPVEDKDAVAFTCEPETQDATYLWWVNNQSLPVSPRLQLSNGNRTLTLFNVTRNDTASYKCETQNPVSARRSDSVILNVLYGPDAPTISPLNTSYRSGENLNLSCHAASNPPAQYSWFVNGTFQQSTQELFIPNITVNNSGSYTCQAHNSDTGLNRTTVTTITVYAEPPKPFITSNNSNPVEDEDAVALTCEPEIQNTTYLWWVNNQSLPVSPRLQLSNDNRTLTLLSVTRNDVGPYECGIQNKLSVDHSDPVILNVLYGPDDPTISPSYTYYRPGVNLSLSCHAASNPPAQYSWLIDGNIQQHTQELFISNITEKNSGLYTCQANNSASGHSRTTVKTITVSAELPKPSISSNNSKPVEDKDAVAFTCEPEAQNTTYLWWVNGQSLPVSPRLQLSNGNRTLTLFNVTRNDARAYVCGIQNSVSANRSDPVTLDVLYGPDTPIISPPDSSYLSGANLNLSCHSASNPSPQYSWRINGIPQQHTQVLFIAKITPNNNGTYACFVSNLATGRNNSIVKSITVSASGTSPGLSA
Description: as §1, §2

[5] = target: T5, Macaca fascicularis (cynomolgus) CEACAM6, full-length, on transfected HeLa cells (Macaca fascicularis, GPI anchor at the C-terminus on the cell surface, not carried by the letters)
T5 construct: also called TPP-4189; HeLa Cynomolgus CEACAM6
T5 chain: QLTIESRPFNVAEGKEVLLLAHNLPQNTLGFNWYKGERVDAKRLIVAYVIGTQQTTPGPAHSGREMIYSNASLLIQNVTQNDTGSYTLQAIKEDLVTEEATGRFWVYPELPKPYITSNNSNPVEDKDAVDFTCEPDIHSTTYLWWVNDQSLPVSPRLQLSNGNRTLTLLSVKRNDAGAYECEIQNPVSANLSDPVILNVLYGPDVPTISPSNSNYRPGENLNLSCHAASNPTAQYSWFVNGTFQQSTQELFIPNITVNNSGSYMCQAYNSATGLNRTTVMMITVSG
Description: as §1, §2

Row | Binder | binding result [1] | EC50 [2] [nM] | binding result [3] | binding result [4] | EC50 [5] [nM] | FACS median fluorescence [2] [medianfluorescence] | FACS median fluorescence [5] [medianfluorescence]
1 | B1 | no binding (tested: 5 µg/ml) | 1 | no binding (tested: 5 µg/ml) | no binding (tested: 5 µg/ml) | 1 | – | –
2 | B2 | no binding (tested: 5 µg/ml) | 0.6 | no binding (tested: 5 µg/ml) | no binding (tested: 5 µg/ml) | 0.8 | 10 to 100 | 100 to 1000
3 | B3 | no binding (tested: 5 µg/ml) | 0.45 | no binding (tested: 5 µg/ml) | no binding (tested: 5 µg/ml) | 0.6 | 10 to 100 | 100 to 1000
